According to patent US20200325220A1 (INSTITUTE FOR RESEARCH IN BIOMEDICINE, published 2020):

Target: T1, tetanus toxoid (UniProt P04958 2-1315)
T1 construct: also called TT
Experiment: SPR, antibody captured on protein A, H1 then TT

T1 sequence (P04958 2-457 limits assumed, chain 1 of 2): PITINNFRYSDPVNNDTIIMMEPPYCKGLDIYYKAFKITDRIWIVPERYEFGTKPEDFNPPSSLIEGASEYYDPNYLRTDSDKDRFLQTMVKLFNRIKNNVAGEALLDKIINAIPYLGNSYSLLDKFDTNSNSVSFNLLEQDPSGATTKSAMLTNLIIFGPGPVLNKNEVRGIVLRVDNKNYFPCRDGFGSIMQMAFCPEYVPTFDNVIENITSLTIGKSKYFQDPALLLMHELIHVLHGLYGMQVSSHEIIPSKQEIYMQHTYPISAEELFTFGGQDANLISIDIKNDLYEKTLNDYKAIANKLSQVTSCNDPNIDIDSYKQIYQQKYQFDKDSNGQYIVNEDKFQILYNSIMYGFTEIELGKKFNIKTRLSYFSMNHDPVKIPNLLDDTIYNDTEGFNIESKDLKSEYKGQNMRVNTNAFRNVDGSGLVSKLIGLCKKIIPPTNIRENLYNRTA
T1 sequence (P04958 458-1315 limits assumed, chain 2 of 2): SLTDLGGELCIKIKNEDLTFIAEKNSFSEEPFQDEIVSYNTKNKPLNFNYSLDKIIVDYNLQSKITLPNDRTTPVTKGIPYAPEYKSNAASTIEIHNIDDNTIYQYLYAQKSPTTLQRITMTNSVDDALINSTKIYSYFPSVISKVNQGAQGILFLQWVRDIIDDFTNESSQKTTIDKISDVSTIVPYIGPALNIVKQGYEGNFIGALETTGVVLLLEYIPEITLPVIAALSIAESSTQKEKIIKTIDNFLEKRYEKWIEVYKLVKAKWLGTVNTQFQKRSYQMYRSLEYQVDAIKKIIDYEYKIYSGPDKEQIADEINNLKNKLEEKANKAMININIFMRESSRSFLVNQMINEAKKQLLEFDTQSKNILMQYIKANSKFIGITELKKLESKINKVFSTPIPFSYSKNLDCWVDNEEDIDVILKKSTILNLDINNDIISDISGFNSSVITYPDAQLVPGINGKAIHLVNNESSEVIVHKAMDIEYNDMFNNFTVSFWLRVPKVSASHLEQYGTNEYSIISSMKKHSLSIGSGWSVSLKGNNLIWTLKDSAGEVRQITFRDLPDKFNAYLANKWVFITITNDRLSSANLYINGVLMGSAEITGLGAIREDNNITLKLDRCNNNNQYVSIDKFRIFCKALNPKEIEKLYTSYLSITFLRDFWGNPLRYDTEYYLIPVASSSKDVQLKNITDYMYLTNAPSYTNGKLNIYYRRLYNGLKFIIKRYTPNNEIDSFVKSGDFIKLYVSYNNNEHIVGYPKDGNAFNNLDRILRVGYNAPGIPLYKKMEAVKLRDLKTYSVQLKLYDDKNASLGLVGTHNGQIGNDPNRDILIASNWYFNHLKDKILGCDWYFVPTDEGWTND

B1: FI174 (antibody, V domains shown)
VH: QVQLVQSGAEVRKPGSSVKVSCKTSGGIIRKYALSWVRQAPGQGLEWMGGIIAIFGTTNYAQKFQGRVTINADESTSTVYLELSSLTSEDTAIYYCAGSATYYESRFDYWGQGTLVTVSS
VL: EIVLTQSPGTLSLSPGARATLSCRASQSVSSSSLAWYQQKPGQAPRLLIYDASSRATGIPDRFSGSGSGTDFTLTISRLEPEDFAVYYCHQYGDSRKTFGQGTKVEIKR
notes: also called F1174; FI74
B1: no binding (tested: tetanus toxoid 50 nM).
